Laboratory results: patent US20220040297A1 (Chugai, published 2022)
Positions count from the first letter of the chain named. In names and notes the source's numbering stands. Each block holds one binder with its values, some of them ahead of it.

Tests used:
CD3ε homodimer protein [1] = target: T1, CD3ε homodimer protein (human, UniProt P07766 23-126, limits assumed); assay: SPR (Biacore T200, 25°C); CD3ε homodimer immobilized on CM4, one-arm antibody as analyte
T1 construct: also called human CD3ε homodimer protein; CD3e homodimer
T1 sequence (P07766 23-126 limits assumed): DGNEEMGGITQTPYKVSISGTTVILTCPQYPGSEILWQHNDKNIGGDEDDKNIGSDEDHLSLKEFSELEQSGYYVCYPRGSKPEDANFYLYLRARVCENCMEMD

CD3ε homodimer protein [2] = target: CD3ε homodimer protein (human, UniProt P07766 23-126, limits assumed); assay: SPR Biacore T200, CD3e homodimer on CM4 chip, antibody as analyte, 25 C
Target sequence in this assay (P07766 23-126 limits assumed): as above
Procedure: An appropriate amount of CD3ε homodimer protein was immobilized onto Sensor chip CM4 (GE Healthcare Japan Corp.) by the amine coupling method. Then, the antibody having an appropriate concentration was injected thereto as an analyte and allowed to interact with the CD3ε homodimer protein on the sensor chip. Then, the sensor chip was regenerated by the injection of 10 mmol/L glycine-HCl (pH 1.5). The assay was conducted at 25° C., and HBS-EP+ (GE Healthcare Japan Corp.) was used as a running buffer. […] Each parameter was calculated using Biacore T200 Evaluation Software (GE Healthcare Japan Corp.).
Specifically, when the amount of the antibody comprising CE115HA000 bound was defined as X and the amount of the H chain one-amino acid altered form bound was defined as Y, a value of Z (ratio of amounts bound)=Y/X was used.

- Kd (CD3ε homodimer protein [1]): 61 nM
B1: NNS6f62 (antibody)
heavy: QVQLVESGGGLVQPGRSLRLSCAASGFTFSNAWMHWVRQAPGKGLEWVAQIKDKSNNYATYYAESVKGRFTISRDDSKNSIYLQMNSLKTEDTAVYYCRYVHYAANGGTRHYYGVDAWGQGTTVTVSSASTKGPSVFPLAPSSKSTSGGTAALGCLVKDYFPEPVTVSWNSGALTSGVHTFPAVLQSSGLYSLSSVVTVPSSSLGTQTYICNVNHKPSNTKVDKKVEPKSCDKTHTCPPCPAPEAAGGPSVFLFPPKPKDTLMISRTPEVTCVVVDVSHEDPEVKFNWYVDGVEVHNAKTKPREEQYASTYRVVSVLTVLHQDWLNGKEYKCKVSNKALPAPIEKTISKAKGQPREPQVYTLPPSRCELTKNQVSLSCAVKGFYPSDIAVEWESNGQPENNYKTTPPVLDSDGSFFLVSKLTVDKSRWQQGNVFSCSVMHEALHNHYTQKSLSLSPDYKDDDDK
chain: EPKSSDKTHTCPPCPAPELLGGPSVFLFPPKPKDTLMISRTPEVTCVVVDVSHEDPEVKFNWYVDGVEVHNAKTKPREEQYNSTYRVVSVLTVLHQDWLNGKEYKCKVSNKALPAPIEKTISKAKGQPREPQVCTLPPSRDELTKNQVSLWCLVKGFYPSDIAVEWESNGQPENNYKTTPPVLDSDGSFFLYSKLTVDKSRWQQGNVFSCSVMHEALHNRYTQKSLSLSP
light: DIVMTQSPLSLPVTPGEPASISCRSSQSLVHSNRNTYLHWYQQKPGQAPRLLIYKVSNRFSGVPDRFSGSGSGTDFTLKISRVEAEDVGVYYCGQGTQVPYTFGQGTKLEIKRTVAAPSVFIFPPSDEQLKSGTASVVCLLNNFYPREAKVQWKVDNALQSGNSQESVTEQDSKDSTYSLSSTLTLSKADYEKHKVYACEVTHQGLSSPVTKSFNRGEC
notes: one-arm antibody

- Kd (CD3ε homodimer protein [1]): 26 nM
B2: NNS6f73 (antibody)
heavy: B1 heavy with N106W, G107V, G108V, T109G, R110V, H111R
chain: B1 chain
light: B1 light
notes: one-arm antibody

- Kd (CD3ε homodimer protein [1]): 45 nM
B3: NNS6f68 (antibody)
heavy: B1 heavy with N106V, G107E, G108W, T109G, H111W
chain: B1 chain
light: B1 light
notes: one-arm antibody

- Kd (CD3ε homodimer protein [1]): 36 nM
B4: NNS6f67 (antibody)
heavy: B1 heavy with N106G, G107L, G108L, T109R, R110A, H111A
chain: B1 chain
light: B1 light
notes: one-arm antibody

- KD ratio (KD of CE115HA000/KD of altered form) (CD3ε homodimer protein [2]): 3.61
B5: CE115HA000 A102P one-arm antibody (antibody, human IgG1, kappa, L234A L235A, N297A, name in Kabat numbering)
heavy: QVQLVESGGGVVQPGRSLRLSCAASGFTFSNAWMHWVRQAPGKGLEWVAQIKAKSNNYATYYAESVKGRFTISRDDSKNSLYLQMNSLKTEDTAVYYCRYVHYGAYYGVDPWGQGTTVTVSSASTKGPSVFPLAPSSKSTSGGTAALGCLVKDYFPEPVTVSWNSGALTSGVHTFPAVLQSSGLYSLSSVVTVPSSSLGTQTYICNVNHKPSNTKVDKKVEPKSCDKTHTCPPCPAPEAAGGPSVFLFPPKPKDTLMISRTPEVTCVVVDVSHEDPEVKFNWYVDGVEVHNAKTKPREEQYASTYRVVSVLTVLHQDWLNGKEYKCKVSNKALPAPIEKTISKAKGQPREPQVYTLPPSRCELTKNQVSLSCAVKGFYPSDIAVEWESNGQPENNYKTTPPVLDSDGSFFLVSKLTVDKSRWQQGNVFSCSVMHEALHNHYTQKSLSLSPDYKDDDDK
chain: B1 chain
light: B1 light

- Kd (CD3ε homodimer protein [1]): 78 nM
B6: NNS6f64 (antibody)
heavy: B1 heavy with N106L, G107V, G108S, T109L, R110T, H111V
chain: B1 chain
light: B1 light
notes: one-arm antibody

- Kd (CD3ε homodimer protein [1]): 150 nM
B7: NNS6f72 (antibody)
heavy: B1 heavy with N106E, G108I, T109W, R110W, H111G
chain: B1 chain
light: B1 light
notes: one-arm antibody

- Kd (CD3ε homodimer protein [1]): 51 nM
B8: NNS6f71 (antibody)
heavy: B1 heavy with N106G, G107W, G108V, T109L, R110G, H111S
chain: B1 chain
light: B1 light
notes: one-arm antibody
